From paper PMC8633789, “Transmembrane topology and oligomeric nature of an astrocytic membrane protein, MLC1” (Open Biology, 2021)

Columns and labels:
[1] = molecular target: codon-optimized chicken MLC1 with 6× His-tag (chicken); assay: cross-linking; glutaraldehyde (400-fold molar excess) on protein-detergent micelles (0.5-0.9 µg protein/µl), 1, 10 or 30 min at 23°C, SDS-PAGE; cross-linking largely inhibited with 2% SDS
[2] = molecular target: CLC-ck2; assay: SEC-MALS; SEC-MALS-RI, Superdex-200 Increase 10/300 GL, 1 mg/ml in 200 µl, 150 mM NaCl, 20 mM HEPES pH 7.5, 2 mM DDM
[3] = molecular target: the molecule itself; assay: cross-linking; glutaraldehyde (400-fold molar excess) on protein-detergent micelles (0.5-0.9 µg protein/µl), 1, 10 or 30 min at 23°C, SDS-PAGE; cross-linking largely inhibited with 2% SDS
[4] = molecular target: the molecule itself; assay: single-molecule photobleaching (TIRFM); proteoliposomes (POPE:POPG 3:1, 0.1 mol% biotinyl CAP-PE, 0.4 µg protein/mg lipid) immobilised on a coated coverslip; distribution of GFP bleaching steps compared with binomial models, p = 0.8
[5] = molecular target: the molecule itself; assay: SEC-MALS; SEC-MALS-RI, Superdex-200 Increase 10/300 GL, 1 mg/ml in 200 µl, 150 mM NaCl, 20 mM HEPES pH 7.5, 2 mM DDM

codon-optimized chicken MLC1 with 6× His-tag (natural protein)
stoichiometry N [1]: 3

CLC-ck2 (natural protein)
stoichiometry N [2]: 2

B1: 3× Flag-tagged human MLC1 (natural protein, UniProt Q15049-1 1-377, looked up)
chain: MTQEPFREELAYDRMPTLERGRQDPASYAPDAKPSDLQLSKRLPPCFSHKTWVFSVLMGSCLLVTSGFSLYLGNVFPAEMDYLRCAAGSCIPSAIVSFTVSRRNANVIPNFQILFVSTFAVTTTCLIWFGCKLVLNPSAININFNLILLLLLELLMAATVIIAARSSEEDCKKKKGSMSDSANILDEVPFPARVLKSYSVVEVIAGISAVLGGIIALNVDDSVSGPHLSVTFFWILVACFPSAIASHVAAECPSKCLVEVLIAISSLTSPLLFTASGYLSFSIMRIVEMFKDYPPAIKPSYDVLLLLLLLVLLLQAGLNTGTAIQCVRFKVSARLQGASWDTQNGPQERLAGEVARSPLKEFDKEKAWRAVVVQMAQ
notes: human MLC1 (megalencephalic leukoencephalopathy with subcortical cysts protein 1), cDNA NM_015166.3 from GenScript; The predicted mass of the tagged monomer (approx. 44 kDa) fits the whole protein; also called 3× Flag-hMLC1; hMLC1; not shown: 3× Flag, N-terminal, kept
stoichiometry N [3]: 3

B2: 3× Flag-tagged hMLC1-GFP (natural protein, human, UniProt Q15049-1 1-377, looked up)
chain: B1 chain
notes: human MLC1, cDNA NM_015166.3; probably as for 3× Flag-hMLC1 (HEK293S GnTI-); also called 3× F-hMLC1-G; 3× F-hMLC1-GFP; source: reconstituted into POPE:POPG proteoliposomes; not shown: 3× Flag, N-terminal, kept; GFP, C-terminal, kept
stoichiometry N [4]: 3

B3: CLC-ec1 (natural protein, UniProt P37019 1-473, looked up)
chain: MKTDTPSLETPQAARLRRRQLIRQLLERDKTPLAILFMAAVVGTLVGLAAVAFDKGVAWLQNQRMGALVHTADNYPLLLTVAFLCSAVLAMFGYFLVRKYAPEAGGSGIPEIEGALEDQRPVRWWRVLPVKFFGGLGTLGGGMVLGREGPTVQIGGNIGRMVLDIFRLKGDEARHTLLATGAAAGLAAAFNAPLAGILFIIEEMRPQFRYTLISIKAVFIGVIMSTIMYRIFNHEVALIDVGKLSDAPLNTLWLYLILGIIFGIFGPIFNKWVLGMQDLLHRVHGGNITKWVLMGGAIGGLCGLLGFVAPATSGGGFNLIPIATAGNFSMGMLVFIFVARVITTLLCFSSGAPGGIFAPMLALGTVLGTAFGMVAVELFPQYHLEAGTFAIAGMGALLAASIRAPLTGIILVLEMTDNYQLILPMIITGLGATLLAQFTGGKPLYSAILARTLAKQEAEQLARSKAASASENT
notes: CLC-ec1, control membrane protein, approximately 100 kDa as a dimer; also called CLC-ec1 dimer
stoichiometry N [5]: 2
